The values below come from patent publication US20110091994A1, “Methods for Screening Compounds for Treating and/or Preventing an Hepatitis C Virus Infection” (priority 2008, published 2011).

In assay [1] the target is T1, HCV ORFs (Gal4-DB fusions) (Hepatitis C virus genotype 1b, UniProt Q9WMX2).
T1 construct: expressed in transfected cells; host or cells: Saccharomyces cerevisiae MAV203 (IMAP1) / AH109 (IMAP2)
It counts as binding, HCV genotype 1b, isolate con1. The conditions noted are these: HCV protein NS3 as bait; human protein as prey.

In assay [2] the test system is HCV ORFs (Gal4-DB fusions). The format is binding, HCV genotype 1b, isolate con1. The settings on record: human protein listed by gene symbol; the value names the HCV protein it interacts with.
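Further: yeast two-hybrid screens using HCV genotype 1b proteins fused to Gal4-DB as baits against prey cDNA libraries from human spleen and foetal brain, IMAP1 via transformation and IMAP2 via mating.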

T1 sequence (Q9WMX2 1027-1657): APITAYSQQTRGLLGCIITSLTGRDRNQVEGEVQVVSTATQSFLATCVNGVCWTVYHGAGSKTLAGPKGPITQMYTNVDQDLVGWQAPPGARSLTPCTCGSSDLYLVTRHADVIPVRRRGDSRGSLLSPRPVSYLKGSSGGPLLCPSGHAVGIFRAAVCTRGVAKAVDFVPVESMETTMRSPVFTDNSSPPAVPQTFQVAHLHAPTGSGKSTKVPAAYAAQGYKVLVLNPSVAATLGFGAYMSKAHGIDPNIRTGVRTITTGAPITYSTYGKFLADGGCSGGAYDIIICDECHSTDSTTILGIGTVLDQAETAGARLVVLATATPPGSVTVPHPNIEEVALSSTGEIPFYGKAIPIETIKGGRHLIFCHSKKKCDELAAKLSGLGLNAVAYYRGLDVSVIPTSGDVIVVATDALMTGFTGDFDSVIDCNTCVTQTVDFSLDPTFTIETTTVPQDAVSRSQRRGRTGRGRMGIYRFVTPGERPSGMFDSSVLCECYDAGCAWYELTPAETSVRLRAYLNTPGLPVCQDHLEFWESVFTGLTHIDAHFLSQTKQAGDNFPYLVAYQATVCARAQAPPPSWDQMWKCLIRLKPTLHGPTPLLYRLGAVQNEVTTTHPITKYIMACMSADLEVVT

B1: FAM65A (protein, UniProt Q6ZS17 1-1223, looked up)
Rho family-interacting cell …: MMSLSVRPQRRLLSARVNRSQSFAGVLGSHERGPSLSFRSFPVFSPPGPPRKPPALSRVSRMFSVAHPAAKVPQPERLDLVYTALKRGLTAYLEVHQQEQEKLQGQIRESKRNSRLGFLYDLDKQVKSIERFLRRLEFHASKIDELYEAYCVQRRLRDGAYNMVRAYTTGSPGSREARDSLAEATRGHREYTESMCLLESELEAQLGEFHLRMKGLAGFARLCVGDQYEICMKYGRQRWKLRGRIEGSGKQVWDSEETIFLPLLTEFLSIKVTELKGLANHVVVGSVSCETKDLFAALPQVVAVDINDLGTIKLSLEVTWSPFDKDDQPSAASSVNKASTVTKRFSTYSQSPPDTPSLREQAFYNMLRRQEELENGTAWSLSSESSDDSSSPQLSGTARHSPAPRPLVQQPEPLPIQVAFRRPETPSSGPLDEEGAVAPVLANGHAPYSRTLSHISEASVDAALAEASVEAVGPESLAWGPSPPTHPAPTHGEHPSPVPPALDPGHSATSSTLGTTGSVPTSTDPAPSAHLDSVHKSTDSGPSELPGPTHTTTGSTYSAITTTHSAPSPLTHTTTGSTHKPIISTLTTTGPTLNIIGPVQTTTSPTHTMPSPTHTTASPTHTSTSPTHTPTSPTHKTSMSPPTTTSPTPSGMGLVQTATSPTHPTTSPTHPTTSPILINVSPSTSLELATLSSPSKHSDPTLPGTDSLPCSPPVSNSYTQADPMAPRTPHPSPAHSSRKPLTSPAPDPSESTVQSLSPTPSPPTPAPQHSDLCLAMAVQTPVPTAAGGSGDRSLEEALGALMAALDDYRGQFPELQGLEQEVTRLESLLMQRQGLTRSRASSLSITVEHALESFSFLNEDEDEDNDVPGDRPPSSPEAGAEDSIDSPSARPLSTGCPALDAALVRHLYHCSRLLLKLGTFGPLRCQEAWALERLLREARVLEAVCEFSRRWEIPASSAQEVVQFSASRPGFLTFWDQCTERLSCFLCPVERVLLTFCNQYGARLSLRQPGLAEAVCVKFLEDALGQKLPRRPQPGPGEQLTVFQFWSFVETLDSPTMEAYVTETAEEVLLVRNLNSDDQAVVLKALRLAPEGRLRRDGLRALSSLLVHGNNKVMAAVSTQLRSLSLGPTFRERALLCFLDQLEDEDVQTRVAGCLALGCIKAPEGIEPLVYLCQTDTEAVREAARQSLQQCGEEGQSAHRRLEESLDALPRIFGPGSMASTAF
Consider B1, for which the “IMAP Y2H IMAP2 (number of IST)” value in assay [1] stood at 1. Also, the “Interaction with viral protein” value in assay [2] was “NS3”.

B2: EEF1A1 (protein, UniProt P68104 2-462, looked up)
Elongation factor 1-alpha 1: GKEKTHINIVVIGHVDSGKSTTTGHLIYKCGGIDKRTIEKFEKEAAEMGKGSFKYAWVLDKLKAERERGITIDISLWKFETSKYYVTIIDAPGHRDFIKNMITGTSQADCAVLIVAAGVGEFEAGISKNGQTREHALLAYTLGVKQLIVGVNKMDSTEPPYSQKRYEEIVKEVSTYIKKIGYNPDTVAFVPISGWNGDNMLEPSANMPWFKGWKVTRKDGNASGTTLLEALDCILPPTRPTDKPLRLPLQDVYKIGGIGTVPVGRVETGVLKPGMVVTFAPVNVTTEVKSVEMHHEALSEALPGDNVGFNVKNVSVKDVRRGNVAGDSKNDPPMEAAGFTAQVIILNHPGQISAGYAPVLDCHTAHIACKFAELKEKIDRRSGKKLEDGPKFLKSGDAAIVDMVPGKPMCVESFSDYPPLGRFAVRDMRQTVAVGVIKAVDKKAAGAGKVTKSAQKAQKAK
As to B2, the “IMAP Y2H IMAP2 (number of IST)” value in assay [1] stood at 1. Further, the “Interaction with viral protein” value in assay [2] was “NS3”.
